For two substances, relative level pulled down by GST-HP1β (normalised to GST-HP1β) results are on record in publication PMC2474647.

The assay concerns the target GST-HP1β (UniProt P83917). The assay can be described thus: pull-down; GST-HP1β bound to glutathione beads, in nuclear extraction buffer, incubated with FLAG-TIF1βs purified from 293T cells by FLAG peptide elution; Western blot quantified with ImageGauge, normalised to GST-HP1β. Background: In western blotting, separated proteins are transferred to a membrane and probed.
UniProt P83917, sequence (P83917 whole entry): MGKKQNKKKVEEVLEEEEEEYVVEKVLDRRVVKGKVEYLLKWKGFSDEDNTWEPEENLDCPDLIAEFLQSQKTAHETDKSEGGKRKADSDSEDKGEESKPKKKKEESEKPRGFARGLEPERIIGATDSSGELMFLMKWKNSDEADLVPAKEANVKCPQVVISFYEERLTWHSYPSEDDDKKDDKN

Turning to “FLAG-TIF1β (wild type), expressed in 293T cells (natural protein)”, the relative level pulled down by GST-HP1β (normalised to GST-HP1β) stood at 1.39.

Take “FLAG-TIF1β/S473A, expressed in 293T cells (natural protein)”: the relative level pulled down by GST-HP1β (normalised to GST-HP1β) came to 1.63.
